This note sets out measurements from patent CN111592595A (UNIV NANJING MEDICAL, dated 2020).

One assay deals with T1, SARS-Cov-1-RBD-hFc蛋白 (SARS-Cov-1, UniProt P59594 306-527).
T1 construct: domain: RBD
Put plainly: phage ELISA on coated antigen, anti-M13-HRP detection. For orientation: In an ELISA, binding on a coated surface is turned into a signal by an enzyme label.

In a further assay the target is SARS-Cov-2-RBD-his蛋白 (SARS-Cov-2, UniProt P0DTC2 319-541).
Assay [1] deals with SARS-Cov-2 spike (on lentiviral pseudovirus) (SARS-Cov-2, UniProt P0DTC2 14-1273). Put plainly: cell-based or functional assay.

As a reminder, the Kd is the constant that tells how readily two partners part at equilibrium. The low end stands for higher affinity, the high end for lower affinity.

B1: 4A3噬菌体 (4A3 scFv displayed on phage) (scFv)
scFv: EVQLLESGGGLVQPGGSLRLSCAASGFTFSSYAMSWVRQAPGKGLEWVSSIASSGYYTDYADSVKGRFTISRDNSKNTLYLQMNSLRAEDTAVYYCAKDADSFDYWGQGTLVTVSSGGGGSGGGGSGGGGSDIQMTQSPSSLSASVGDRVTITCRASQSISSYLNWYQQKPGKAPKLLIYAASYLQSGVPSRFSGSGSGTDFTLTISSLQPEDFATYYCQQAYSAPSTFGQGTKVEIK
notes: also called 4A3抗体; 4A3的噬菌体
On to B1, for which, in the assay with SARS-Cov-1-RBD-hFc蛋白, the binding result is recorded as “no binding (tested: 5μg/ml coating)”.

B2: 4A3 IgG重组蛋白 (human IgG1) (antibody, V domains shown)
VH: EVQLLESGGGLVQPGGSLRLSCAASGFTFSSYAMSWVRQAPGKGLEWVSSIASSGYYTDYADSVKGRFTISRDNSKNTLYLQMNSLRAEDTAVYYCAKDADSFDYWGQGTLVTVSS
VL: DIQMTQSPSSLSASVGDRVTITCRASQSISSYLNWYQQKPGKAPKLLIYAASYLQSGVPSRFSGSGSGTDFTLTISSLQPEDFATYYCQQAYSAPSTFGQGTKVEIK
B2: in the assay with SARS-Cov-2-RBD-his蛋白, the Kd turned out to be 3.62 nM. In addition, the “IC50 of inhibition of pseudovirus infection of ACE2-CHO cells (Luciferase活性)” value in assay [1] was determined as 0.28 µg/mL.
